The text below walks through data of publication PMC2935968 (2010).

For test [1], the target named is Hsp90 ( (Arabidopsis H. vulgare or …, UniProt Q7XJ80)). As to the kind of experiment: competition GST pull-down; ATPase stimulation.
The target in test [2] is T1, GST-Rar1 (wild type) (Arabidopsis thaliana (Mouse-ear cress), UniProt Q9SE33).
T1 chain: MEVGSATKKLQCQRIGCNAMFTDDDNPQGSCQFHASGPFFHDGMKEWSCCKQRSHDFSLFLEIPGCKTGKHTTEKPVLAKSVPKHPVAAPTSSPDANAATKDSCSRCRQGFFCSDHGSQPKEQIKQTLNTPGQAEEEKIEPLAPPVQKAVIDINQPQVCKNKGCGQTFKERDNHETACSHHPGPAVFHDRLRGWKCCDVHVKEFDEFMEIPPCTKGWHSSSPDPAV
As to the kind of experiment: GST pull-down; strengthened by Sgt1; ADP enhances the CHORDI-Hsp90 interaction.

Chain of Hsp90 ( (Q7XJ80 entry or part of it): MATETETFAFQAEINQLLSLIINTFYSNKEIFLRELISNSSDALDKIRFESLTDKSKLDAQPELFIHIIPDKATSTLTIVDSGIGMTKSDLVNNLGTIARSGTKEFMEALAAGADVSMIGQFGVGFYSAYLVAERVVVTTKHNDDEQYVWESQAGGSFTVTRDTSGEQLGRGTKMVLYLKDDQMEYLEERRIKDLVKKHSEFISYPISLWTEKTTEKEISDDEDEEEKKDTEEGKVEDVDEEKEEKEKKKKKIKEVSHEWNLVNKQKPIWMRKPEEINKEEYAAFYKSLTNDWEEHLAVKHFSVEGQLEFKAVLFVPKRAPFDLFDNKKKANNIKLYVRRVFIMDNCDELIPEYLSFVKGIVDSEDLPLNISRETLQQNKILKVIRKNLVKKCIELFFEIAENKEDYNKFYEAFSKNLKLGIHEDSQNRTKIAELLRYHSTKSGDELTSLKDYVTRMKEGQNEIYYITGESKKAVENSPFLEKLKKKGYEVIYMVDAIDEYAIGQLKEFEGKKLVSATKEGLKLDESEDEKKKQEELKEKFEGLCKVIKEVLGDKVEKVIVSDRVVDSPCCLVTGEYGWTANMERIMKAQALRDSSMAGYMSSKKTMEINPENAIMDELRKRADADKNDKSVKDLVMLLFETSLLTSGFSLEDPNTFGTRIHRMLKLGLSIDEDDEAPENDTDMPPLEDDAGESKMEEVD

B1: Rar1 (wild type, not GST-tagged) (protein)
chain: T1 chain
B1: the binding result in test [1] was “binds”.

B2: Hsp90 (protein)
chain: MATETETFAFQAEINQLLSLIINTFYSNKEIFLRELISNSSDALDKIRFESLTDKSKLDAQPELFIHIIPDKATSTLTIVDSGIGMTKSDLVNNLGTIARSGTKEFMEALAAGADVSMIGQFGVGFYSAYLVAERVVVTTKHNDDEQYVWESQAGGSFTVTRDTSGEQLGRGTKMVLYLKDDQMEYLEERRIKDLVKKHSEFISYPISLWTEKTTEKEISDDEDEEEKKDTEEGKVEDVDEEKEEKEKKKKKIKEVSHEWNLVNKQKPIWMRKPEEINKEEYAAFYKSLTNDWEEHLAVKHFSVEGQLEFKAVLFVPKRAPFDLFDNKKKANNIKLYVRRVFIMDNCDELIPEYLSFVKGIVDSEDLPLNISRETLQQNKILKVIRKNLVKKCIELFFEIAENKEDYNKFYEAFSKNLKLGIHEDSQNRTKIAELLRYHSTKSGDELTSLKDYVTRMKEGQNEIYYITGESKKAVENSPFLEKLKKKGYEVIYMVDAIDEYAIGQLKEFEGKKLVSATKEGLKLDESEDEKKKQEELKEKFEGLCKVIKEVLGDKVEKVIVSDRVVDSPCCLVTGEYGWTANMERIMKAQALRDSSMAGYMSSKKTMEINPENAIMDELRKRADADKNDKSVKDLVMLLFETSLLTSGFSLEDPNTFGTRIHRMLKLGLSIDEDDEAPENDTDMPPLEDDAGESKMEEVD
Turning to B2, the binding result in test [2] is “binds”.
